Experimental findings from paper PMC2807033 (2009) are described below.

The target of this assay is E. coli replicative helicase DnaB, purified (E. coli, UniProt P0ACB0 1-471). Briefly: SPR. In general terms: SPR reads the build-up and loss of mass on a sensor chip optically.

No end group written: not given here. *: point of attachment. Biotin = O=C1N[C@H]2[C@H](CS[C@H]2CCCCC(=O)*)N1

E. coli replicative helicase DnaB, purified, sequence (P0ACB0 whole entry): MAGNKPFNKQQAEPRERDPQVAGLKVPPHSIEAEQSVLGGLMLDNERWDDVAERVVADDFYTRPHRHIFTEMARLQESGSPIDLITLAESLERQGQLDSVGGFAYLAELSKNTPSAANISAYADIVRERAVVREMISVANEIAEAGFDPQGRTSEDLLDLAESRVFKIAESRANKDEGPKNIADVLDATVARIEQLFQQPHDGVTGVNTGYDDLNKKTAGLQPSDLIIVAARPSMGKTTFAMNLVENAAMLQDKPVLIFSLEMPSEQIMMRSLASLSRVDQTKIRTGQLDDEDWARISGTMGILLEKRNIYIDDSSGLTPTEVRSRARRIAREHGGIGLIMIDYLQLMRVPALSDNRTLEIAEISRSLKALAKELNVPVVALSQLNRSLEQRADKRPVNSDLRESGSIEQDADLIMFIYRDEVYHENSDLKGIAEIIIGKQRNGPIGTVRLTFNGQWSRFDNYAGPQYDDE

As a reminder, the Kd is the constant that tells how readily two partners part at equilibrium. Biotin-EQERKVVSAEERMQKGQSHLANLKAMMAAKRGK [C33^Rep peptide (synthetic peptide corresponding to the C-terminal 33 residues of Rep)] had a Kd of 44 nM.
